The values below come from publication PMC6348423, “Rapid Mapping of Protein Interactions Using Tag‐Transfer Photocrosslinkers” (Angewandte Chemie (International Ed. in English), 2018).

To fix the notation:
T1: MCL-1 (human, UniProt Q07820 1-350)
T1 chain: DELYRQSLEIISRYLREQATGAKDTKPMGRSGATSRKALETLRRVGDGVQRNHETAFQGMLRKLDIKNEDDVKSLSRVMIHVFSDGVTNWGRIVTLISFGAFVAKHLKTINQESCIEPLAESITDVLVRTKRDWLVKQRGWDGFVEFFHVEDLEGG

B1: WT BID_(80-102) (peptide)
peptide: EDIIRNIARHLAQVGDSMDRSIP
modifications: Limits not printed in the main text (supplement); 172-327 is the usual soluble MCL-1 construct for BH3 assays, close to the PDB 2KBW construct
B2: BID_(80-102) S100C tagged with MTS-TFMD (peptide)
chain: EDIIRNIARHLAQVGDSMDRCIP
modifications: Cys100 disulfide-linked to MTS-TFMD (trifluoromethyl phenyl diazirine) tag; synthetic peptide, termini not stated in main text Limits not printed in the main text (supplement); 172-327 is the usual soluble MCL-1 construct for BH3 assays, close to the PDB 2KBW construct
B3: BID_(80-102) S100C tagged with MTS-diazirine (peptide)
chain: EDIIRNIARHLAQVGDSMDRCIP
modifications: Cys100 disulfide-linked to MTS-diazirine (alkyl diazirine) tag; synthetic peptide, termini not stated in main text Limits not printed in the main text (supplement); 172-327 is the usual soluble MCL-1 construct for BH3 assays, close to the PDB 2KBW construct

Ends that are not written are not given here. Peptide text beside a SMILES is read from it. * marks the point of attachment. MTS‑TFMD = trifluoromethyl phenyl diazirine photocrosslinker tag, disulfide-linked to Cys via MTS; MTS‑diazirine = alkyl diazirine tag, disulfide-linked to Cys via MTS; X1 = FC(F)(F)C1(c2ccc(CS*)cc2)N=N1; X2 = CC1(CCS*)N=N1

The first experiment has as its target T1, MCL-1. The experiment is described as follows: FP.
Conditions: not given
In the case of EDIIRNC(MTS‑TFMD)ARHLAQVGDSMDRSIP [BID_(80-102) I86C tagged with MTS-TFMD], the EC50 was 1410 nM.
On the same count and under the same terms, under EDIIRNIARHLAQVGDSC(MTS‑diazirine)DRSIP [BID_(80-102) M97C tagged with MTS-diazirine] stands 422 nM; under EDIC(MTS‑diazirine)RNIARHLAQVGDSMDRSIP [BID_(80-102) I83C tagged with MTS-diazirine], 406 nM; under EDIC(MTS‑TFMD)RNIARHLAQVGDSMDRSIP [BID_(80-102) I83C tagged with MTS-TFMD], 338 nM.
Same read-out and setting: under B1 stands 460 nM; under B2, 287 nM; under EDIIRNIARHLAQC(MTS‑diazirine)GDSMDRSIP [BID_(80-102) V93C tagged with MTS-diazirine], 8750 nM.
The same measure, in the same setting: under EDIIRNIARHLAQVGDSC(MTS‑TFMD)DRSIP [BID_(80-102) M97C tagged with MTS-TFMD] stands 255 nM.
For B3, the EC50 came out at 360 nM.
On the same count and under the same terms, under EDIIRNC(MTS‑diazirine)ARHLAQVGDSMDRSIP [BID_(80-102) I86C tagged with MTS-diazirine] stands 5510 nM.

The target in a further experiment is T2, MCL-1 (Homo sapiens, UniProt Q07820).
T2 construct: made in house
T2 sequence (Q07820 whole entry): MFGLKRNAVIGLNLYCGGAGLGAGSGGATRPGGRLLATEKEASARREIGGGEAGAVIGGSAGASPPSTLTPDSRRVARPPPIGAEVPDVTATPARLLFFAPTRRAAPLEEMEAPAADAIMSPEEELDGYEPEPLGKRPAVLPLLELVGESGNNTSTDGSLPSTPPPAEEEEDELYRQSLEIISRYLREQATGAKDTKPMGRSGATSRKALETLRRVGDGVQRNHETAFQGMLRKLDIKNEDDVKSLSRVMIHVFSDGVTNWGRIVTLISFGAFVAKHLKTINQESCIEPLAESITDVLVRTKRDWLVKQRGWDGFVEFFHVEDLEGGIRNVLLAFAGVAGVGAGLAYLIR
The experiment is described as follows: Photo-crosslinking of labelled BID80-102 peptides to MCL-1, SDS-PAGE band intensity. The following applies: 20 μM labelled peptide + 20 μM MCL-1, TBS pH 7.6; 365 nm UV LED, 1 min; SDS-PAGE band intensity of crosslinked vs non-crosslinked MCL-1; value ± SD of three repeats. As for the experimental part:
Cross-linking experiments
For all irradiation methods, samples were prepared in the following way. For crosslinking of MCL-1/BID80-102, 20 μL of a solution containing MTS-diazirine or MTS-TFMD labelled BID80-102 peptide (20 μM) and MCL-1 (20 μM) in buffer 50 mM Tris-HCl, 150 mM NaCl (TBS) pH 7.6 was prepared. […]
This was then placed under a covered LF-206.LS 6 W 365 nm lamp (Uvitec) at a distance of 12 mm from the source for different times up to 30 min. For UV LED chip experiments, acrylic chip chambers were washed with TBS pH 7.6 buffer and 33 µL of sample was added. These were then clamped into the chip holder and irradiated with the 365 nm LED for up to 30 s. A pipette was used to remove the sample from the chip via the lower filling hole. For UV LED tube experiments, 30-130 µL of sample was added to a thin-walled PCR tube and placed inside a 0.5 mL microfuge tube which itself was in a 1.5 mL microfuge tube that had been wrapped in aluminium foil (to reflect the UV irradiation within the containers). Samples were irradiated with the 365 nm LED for 30 s. To crosslink MCL-1 BID80-102, samples were irradiated using this apparatus for 1 min.
Separation and enrichment of cross-linked products
To separate and/or enrich crosslinked samples three methods were used as described in the main text.
Table S1: Affinity (EC50) of labelled BID80-102 peptides to MCL-1 as determined by competition fluorescence anisotropy assay. Crosslinking efficiency of labelled BID80-102 peptides to MCL-1 based on the SDS-PAGE band intensity of crosslinked and non-crosslinked […]
The values and standard deviations are results of three repeats. n.d = not determined as binding was too weak to enable an accurate fit to be obtained.
BID peptide EC50 for affinity to MCL-1 (nM) Crosslinked Mcl-1 (%)
For the molecule `CC[C@H](C)[C@H](NC(=O)[C@H](CC(N)=O)NC(=O)[C@H](CCCNC(=N)N)NC(=O)[C@@H](NC(=O)[C@@H](NC(=O)[C@H](CC(=O)O)NC(=O)[C@H](CCC(=O)O)NC(C)=O)[C@@H](C)CC)[C@@H](C)CC)C(=O)N[C@@H](C)C(=O)N[C@@H](CCCNC(=N)N)C(=O)N[C@@H](Cc1c[nH]cn1)C(=O)N[C@@H](CC(C)C)C(=O)N[C@@H](C)C(=O)N[C@@H](CCC(N)=O)C(=O)N[C@H](C(=O)NCC(=O)N[C@@H](CC(=O)O)C(=O)N[C@@H](CO)C(=O)N[C@@H](CCSC)C(=O)N[C@@H](CC(=O)O)C(=O)N[C@@H](CCCNC(=N)N)C(=O)N[C@@H](CO)C(=O)N[C@H](C(=O)N[C@@H](Cc1c[nH]c2ccccc12)C(N)=O)[C@@H](C)CC)C(C)C` [WT, reference compound], the “Crosslinked Mcl-1 (crosslinking efficiency)” value came out at 0%.

The experiment is the same for the next values; noted with them: 20 μM labelled peptide + 20 μM MCL-1, TBS pH 7.6; 365 nm UV LED, 1 min; SDS-PAGE band intensity of crosslinked vs non-crosslinked MCL-1; value ± SD of three repeats; SD.
Turning to `CC[C@H](C)[C@H](NC(=O)[C@H](CC(N)=O)NC(=O)[C@H](CCCNC(=N)N)NC(=O)[C@@H](NC(=O)[C@@H](NC(=O)[C@H](CC(=O)O)NC(=O)[C@H](CCC(=O)O)NC(C)=O)[C@@H](C)CC)[C@@H](C)CC)C(=O)N[C@@H](C)C(=O)N[C@@H](CCCNC(=N)N)C(=O)N[C@@H](Cc1c[nH]cn1)C(=O)N[C@@H](CC(C)C)C(=O)N[C@@H](C)C(=O)N[C@@H](CCC(N)=O)C(=O)N[C@H](C(=O)NCC(=O)N[C@@H](CC(=O)O)C(=O)N[C@@H](CO)C(=O)N[C@@H](CSSCc1ccc(C2(C(F)(F)F)N=N2)cc1)C(=O)N[C@@H](CC(=O)O)C(=O)N[C@@H](CCCNC(=N)N)C(=O)N[C@@H](CO)C(=O)N[C@H](C(=O)N[C@@H](Cc1c[nH]c2ccccc12)C(N)=O)[C@@H](C)CC)C(C)C` [MTS-TMFD labelled M97C] (Ac-EDIIRNIARHLAQVGDSC(X1)DRSIW-NH2), the “Crosslinked Mcl-1 (crosslinking efficiency)” value worked out at 26 ± 1%.
Consider `CC[C@H](C)[C@H](NC(=O)[C@H](CO)NC(=O)[C@H](CCCNC(=N)N)NC(=O)[C@H](CC(=O)O)NC(=O)[C@H](CCSC)NC(=O)[C@H](CO)NC(=O)[C@H](CC(=O)O)NC(=O)CNC(=O)[C@@H](NC(=O)[C@H](CCC(N)=O)NC(=O)[C@H](C)NC(=O)[C@H](CC(C)C)NC(=O)[C@H](Cc1c[nH]cn1)NC(=O)[C@H](CCCNC(=N)N)NC(=O)[C@H](C)NC(=O)[C@H](CSSCc1ccc(C2(C(F)(F)F)N=N2)cc1)NC(=O)[C@H](CC(N)=O)NC(=O)[C@H](CCCNC(=N)N)NC(=O)[C@@H](NC(=O)[C@@H](NC(=O)[C@H](CC(=O)O)NC(=O)[C@H](CCC(=O)O)NC(C)=O)[C@@H](C)CC)[C@@H](C)CC)C(C)C)C(=O)N[C@@H](Cc1c[nH]c2ccccc12)C(N)=O` [MTS-TMFD labelled I86C] (Ac-EDIIRNC(X1)ARHLAQVGDSMDRSIW-NH2), for which the “Crosslinked Mcl-1 (crosslinking efficiency)” value is recorded as 53 ± 1%.
On the same count and under the same terms, under `CC[C@H](C)[C@H](NC(=O)[C@H](CO)NC(=O)[C@H](CCCNC(=N)N)NC(=O)[C@H](CC(=O)O)NC(=O)[C@H](CCSC)NC(=O)[C@H](CO)NC(=O)[C@H](CC(=O)O)NC(=O)CNC(=O)[C@@H](NC(=O)[C@H](CCC(N)=O)NC(=O)[C@H](C)NC(=O)[C@H](CC(C)C)NC(=O)[C@H](Cc1c[nH]cn1)NC(=O)[C@H](CCCNC(=N)N)NC(=O)[C@H](C)NC(=O)[C@H](CSSCCC1(C)N=N1)NC(=O)[C@H](CC(N)=O)NC(=O)[C@H](CCCNC(=N)N)NC(=O)[C@@H](NC(=O)[C@@H](NC(=O)[C@H](CC(=O)O)NC(=O)[C@H](CCC(=O)O)NC(C)=O)[C@@H](C)CC)[C@@H](C)CC)C(C)C)C(=O)N[C@@H](Cc1c[nH]c2ccccc12)C(N)=O` [MTS-diazirine labelled I86C] (Ac-EDIIRNC(X2)ARHLAQVGDSMDRSIW-NH2) stands 16 ± 2%.
Still for that read-out and setting: under `CC[C@H](C)[C@H](NC(=O)[C@H](CC(N)=O)NC(=O)[C@H](CCCNC(=N)N)NC(=O)[C@H](CSSCc1ccc(C2(C(F)(F)F)N=N2)cc1)NC(=O)[C@@H](NC(=O)[C@H](CC(=O)O)NC(=O)[C@H](CCC(=O)O)NC(C)=O)[C@@H](C)CC)C(=O)N[C@@H](C)C(=O)N[C@@H](CCCNC(=N)N)C(=O)N[C@@H](Cc1c[nH]cn1)C(=O)N[C@@H](CC(C)C)C(=O)N[C@@H](C)C(=O)N[C@@H](CCC(N)=O)C(=O)N[C@H](C(=O)NCC(=O)N[C@@H](CC(=O)O)C(=O)N[C@@H](CO)C(=O)N[C@@H](CCSC)C(=O)N[C@@H](CC(=O)O)C(=O)N[C@@H](CCCNC(=N)N)C(=O)N[C@@H](CO)C(=O)N[C@H](C(=O)N[C@@H](Cc1c[nH]c2ccccc12)C(N)=O)[C@@H](C)CC)C(C)C` [MTS-TMFD labelled I83C] (Ac-EDIC(X1)RNIARHLAQVGDSMDRSIW-NH2) stands 51 ± 6%.
The same measure, in the same setting: with “MTS-TMFD labelled V93C: single Cys variant V93C of BID80–102 tagged with MTS-TFMD (EDIIRNIARHLAQC(MTS‑TFMD)GDSMDRSIP; UniProt P55957 80-102, looked up, fragment V93C)” the figure was 40 ± 8%; with `CC[C@H](C)[C@H](NC(=O)[C@H](CC(N)=O)NC(=O)[C@H](CCCNC(=N)N)NC(=O)[C@@H](NC(=O)[C@@H](NC(=O)[C@H](CC(=O)O)NC(=O)[C@H](CCC(=O)O)NC(C)=O)[C@@H](C)CC)[C@@H](C)CC)C(=O)N[C@@H](C)C(=O)N[C@@H](CCCNC(=N)N)C(=O)N[C@@H](Cc1c[nH]cn1)C(=O)N[C@@H](CC(C)C)C(=O)N[C@@H](C)C(=O)N[C@@H](CCC(N)=O)C(=O)N[C@H](C(=O)NCC(=O)N[C@@H](CC(=O)O)C(=O)N[C@@H](CO)C(=O)N[C@@H](CCSC)C(=O)N[C@@H](CC(=O)O)C(=O)N[C@@H](CCCNC(=N)N)C(=O)N[C@@H](CSSCc1ccc(C2(C(F)(F)F)N=N2)cc1)C(=O)N[C@H](C(=O)N[C@@H](Cc1c[nH]c2ccccc12)C(N)=O)[C@@H](C)CC)C(C)C` [MTS-TMFD labelled S100C], 31 ± 3%; with `CC[C@H](C)[C@H](NC(=O)[C@H](CC(N)=O)NC(=O)[C@H](CCCNC(=N)N)NC(=O)[C@H](CSSCCC1(C)N=N1)NC(=O)[C@@H](NC(=O)[C@H](CC(=O)O)NC(=O)[C@H](CCC(=O)O)NC(C)=O)[C@@H](C)CC)C(=O)N[C@@H](C)C(=O)N[C@@H](CCCNC(=N)N)C(=O)N[C@@H](Cc1c[nH]cn1)C(=O)N[C@@H](CC(C)C)C(=O)N[C@@H](C)C(=O)N[C@@H](CCC(N)=O)C(=O)N[C@H](C(=O)NCC(=O)N[C@@H](CC(=O)O)C(=O)N[C@@H](CO)C(=O)N[C@@H](CCSC)C(=O)N[C@@H](CC(=O)O)C(=O)N[C@@H](CCCNC(=N)N)C(=O)N[C@@H](CO)C(=O)N[C@H](C(=O)N[C@@H](Cc1c[nH]c2ccccc12)C(N)=O)[C@@H](C)CC)C(C)C` [MTS-diazirine labelled I83C] (Ac-EDIC(X2)RNIARHLAQVGDSMDRSIW-NH2), 19 ± 2%.
